One substance from publication PMC5561266 can be followed below.

As usually defined, the stoichiometry N is the number of molecules, sites or subunits per partner or assembly.

In the assay the target is McpB ligand-binding domain (LBD) of Ralstonia pseudosolanacearum Ps29 (Ralstonia pseudosolanacearum Ps29). As to the kind of experiment: AUC.

As for “McpB ligand-binding domain (LBD) of Ralstonia pseudosolanacearum Ps29 (domain or fragment)”, the stoichiometry N is 2.
